US20200095296A1, “USE OF PEPTIDES AS BIOMARKERS IN THE DIAGNOSIS, CONFIRMATION AND TREATMENT OF A NEUROLOGICAL DISORDER AND TCR AND/OR HLA IMMUNOPROFILING IN NEURODEGENERATIVE DISEASE” (THE TRUSTEES OF COLUMBIA UNIVERSITY IN THE CITY OF NEW YORK, priority 2017, published 2020)

Tests used:
Test in all cases: competition with radiolabeled peptide, purified HLA
HLA DRB1*03:01 (human) = target: HLA DRB1*03:01 (human)
HLA DRB3*01:01 (human) = target: HLA DRB3*01:01 (human)
HLA DRB1*11:01 (human) = target: HLA DRB1*11:01 (human)
HLA DRB1*04:05 (human) = target: HLA DRB1*04:05 (human)
HLA DRB1*09:01 (human) = target: HLA DRB1*09:01 (human)
HLA DRB1*04:01 (human) = target: HLA DRB1*04:01 (human)

| IC50 (HLA DRB3*01:01 (human)) | IC50 (HLA DRB1*04:05 (human)) | IC50 (HLA DRB1*04:01 (human)) | Substance | further results |
| --- | --- | --- | --- | --- |
| 5.67 µM |  |  | alpha-syn peptide aa116…aa130 | IC50 (HLA DRB1*03:01 (human)): 6.96 µM; IC50 (HLA DRB1*11:01 (human)): 1.57 µM |
|  | 3.6 µM |  | alpha-syn peptide aa116…aa130 phosphorylated at S129 |  |
|  | 1.94 µM |  | alpha-syn peptide aa121…aa135 | IC50 (HLA DRB1*09:01 (human)): 4.6 µM |
| 9.18 µM |  | 9.13 µM | alpha-syn peptide aa121…aa135 phosphorylated at S129 |  |
|  |  | 4.96 µM | alpha-syn peptide aa126…aa140 phosphorylated at S129 |  |
